Experimental data reported in publication PMC6250708, “Arabidopsis thaliana DGAT3 is a [2Fe-2S] protein involved in TAG biosynthesis” (Scientific Reports, 2018).

Molecular target: the molecule itself
Assay: SEC; Superdex 200 10/300 GL, 4 °C, 100 mM triethanolamine pH 7.5, 300 mM NaCl, 5% glycerol, 1% n-octyl-β-D-glucopyranoside, 1 mM TCEP; column calibrated with Bio-Rad gel filtration standard; oligomer size assumes a globular protein

B1: Δ46AtDGAT3 (Arabidopsis thaliana acyl-CoA:diacylglycerol acyltransferase 3 lacking the putative chloroplast transit peptide) (domain or fragment, UniProt Q9C5W0 47-360, looked up)
chain: CNNEFADKGHVNYYIEPTRCGEEKEKVKVMEKEKKALKKKAKVLKSLSKNLDMFSSIGFGLDPEAGLVGEIQTKTISEATEILVKQLEQLKAEEKILKKQRKEEKAKAKAMKKMTEMDSESSSSSESSDSDCDKGKVVDMSSLRNKAKPVLEPLQPEATVATLPRIQEDAISCKNTSEALQIALQTSTIFPSMANPGQTLKTVEAVSVVGLPLNRVEVCMGGKCKRSGGALLLDEFQRAMTGFEGSAVACKCMGKCRDGPNVRVVKETDAVMTDSVRTPSKTLCVGVGLQDVETIVTSFFDEECSREGLGSVSY
notes: AtDGAT3 (At1g48300), Arabidopsis thaliana, 360-residue protein of the revised TAIR annotation (GenBank AEE32272); the 46 N-terminal residues (putative chloroplast transit peptide predicted by ChloroP 1.1) removed; calculated mass of the His-tagged protein 35.4 kDa; Cloned NdeI/XhoI into pET-32b(+), in frame with a C-terminal 6xHis tag; the NdeI site of the forward primer supplies a start …
B1 was tested, and the “stoichiometry N” value was 3.
